Source: publication PMC4120242

Target: endogenous FcγRI on human monocytes (human (endogenous in blood monocytes)) (UniProt P12314)
Sequence of UniProt P12314 (P12314 16-374): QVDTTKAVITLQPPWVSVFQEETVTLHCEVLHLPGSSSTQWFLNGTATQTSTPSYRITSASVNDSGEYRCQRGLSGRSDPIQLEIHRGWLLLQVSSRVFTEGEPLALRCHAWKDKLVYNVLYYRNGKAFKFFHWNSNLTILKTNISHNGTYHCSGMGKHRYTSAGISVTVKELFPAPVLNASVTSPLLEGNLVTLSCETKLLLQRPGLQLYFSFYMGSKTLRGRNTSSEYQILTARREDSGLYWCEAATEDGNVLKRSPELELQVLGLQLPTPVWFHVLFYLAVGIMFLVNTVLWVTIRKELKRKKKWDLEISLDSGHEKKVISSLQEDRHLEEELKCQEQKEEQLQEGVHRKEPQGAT

IC50 of inhibition of fibrocyte differentiation of human PBMCs: 2.9 nM
Substance: Serum Amyloid P component (SAP), wildtype (from UniProt P02743 20-223) (natural protein)
